Experimental data reported in patent publication US20160376333A1 (University of Washington, published 2016).

T1: Epstein-Barr virus BHRF1 a.a. 1-161 with C-terminal avi-6his tag (Epstein-Barr virus)
T1 construct: also called EBV BHRF1; BHRF1-biotin
T1 chain: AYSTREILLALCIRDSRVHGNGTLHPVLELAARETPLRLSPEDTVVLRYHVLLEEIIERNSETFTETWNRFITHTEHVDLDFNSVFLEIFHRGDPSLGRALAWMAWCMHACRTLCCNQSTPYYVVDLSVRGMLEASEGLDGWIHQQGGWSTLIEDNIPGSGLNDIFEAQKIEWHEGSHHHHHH


Key:
[1] = target: T1, Epstein-Barr virus BHRF1 a.a. 1-161 …; assay: yeast display library, FACS sort at 100 nM BHRF1, deep sequencing
[2] = target: T1, Epstein-Barr virus BHRF1 a.a. 1-161 …; assay: yeast display library, FACS sort at 400 nM BHRF1, deep sequencing

Row | Binder | Log2 enrichment ratio [1] [log2] | Log2 enrichment ratio [2] [log2]
1 | Index 52 (designed binder) GNDKEKFREDVKKKAKYALWKLKKLADEAKERALKFDPSEEMKREFTLEWIAWALEAIGDIFNAWLDGKKYADEAKKQGKARKEEAEETKKEATRIAKEAHEKASELARKILYHMLLG | -0.83 | -0.2
2 | Index 50 (designed binder) GKRAEELREEAEERAKEAFKETEQKLREVEERSRQTLARDEELRKAALLWIAAALMGIGDLFNKKEKGKEALEKEEKNGKRRTERAEREKERLEKEVSREAQRFKKKGEEEEKKHKYG | -3.79 | -3.47
3 | Index 62 (designed binder) GKLGEELREDAEKKGEEDMRRFERRIREIKRKLKFGYDFEQRKREATHKWIAFALEMIGDAFNFAQKLERALELFKKWNIYSEDDLRELKKRFEEAKEKLKKFADRIRDEGLKAVLLG | -3.21 | -2.65
4 | Index 51 (designed binder) GWTALWLKDFTEQEARKKFREALYYGWMMAMRALEHQLQADELAMWTALWIAAMLEAIGDMFNDKLRAEKYALLLIWLNLYHKDIAEKWREEHEEKLKEALQEMFEAAEKFDKFAKFG | -2.53 | -2.43
5 | Index 58 (designed binder) GEKAKKLEEYAREEIERALREGGDLMEEEREFGEKTELTTEWKHRAMAYWIAAALMIIGDGFNALQFIEEEGRKFIRKGEFARQKIEEHKERAKERLEKALKQAKKRGDELDRFARLG | -2.36 | -2.11
6 | Index 63 (designed binder) GDDKEKVKDYAKKRALEDVLRAKELAEKFIDEAKKSDHSKQNERQYIIAWIAFMLMAIGDVFNAMMEAKRLAELLKRLGLRRWEEAEEVKQKAEELAEEASRLLADLGKDFAKKIEQG | -2.52 | -2.41
7 | Index 45 (designed binder) GYSLDDFLKLAKLLAELLKRFIRKEAERLRELKEWLLDTTLGRLILTLEWIAIELMIIGDIFNAKMLLDKFAKYAEWLGLMKEEEAKQAKKLAKLLLDEVKDEARKKADDGEKFAEEG | -2.44 | -3.17
8 | Index 43 (designed binder) GKKAEEVLKEARKLHEAQLRYAYLMMKDWREKKQQEEKQTQREEKWTAWWIALMLMAIGDIFNFAEWAKEELDKLREKGLVEKKKAEEAKEKAEKLAEEASRRASEFAQLFAKWDKEG | -2.44 | -3.04
9 | Index 42 (designed binder) GQQEEQFIEDFKKEVLRAADDAKDDMEKRAEEFLKKDGDDNEKKRKILKWIADALEAIGDLFNAAQEAKRRAELYFKLGLLKKERKEEAEEEAEKAKEEASKKLHKAAREARIKMEKG | -3.63 | -3.15
10 | Index 57 (designed binder) GDLKEELKERAKKIIRRALDEAKDAEDLIKKEAEKRYVTTEMATKFVAWWIAGALMIIGDIFNAAREVKERAEKALKWGVLSQDDIKELLLELENLEQEAKERAKEFGEKAEKFKKMG | -1.97 | -2.85
11 | Index 44 (designed binder) GESGEWILEKTREKIERAIRDAEKKLRLIILLIRLFHPGDDLRALFAAIWIAAELELIGDIFNEKQDAEEKFKELLKKNQFRWEELWRKWLILEWIFQKARRKSKELAERAKKAFDFG | -3.29 | -3.16
12 | Index 41 (designed binder) GEQEDKVKERAKRGALERAREMFEKMRKAIYLAELYINNDEGKTKLTDRWIAFALMMIGDIFNIALEARLEALKLVLKGLRSQEDAEKVKKLAEEAEREAAKRAAKLGDKMDEKEHEG | -2.17 | -2.39
13 | Index 60 (designed binder) GRQEDEIKDEATKRALEILQKLEQKVRKAKKFAKYGLLLQRWWAWITKVWIAAALDAIGDAFNLGEELKRILEELRRRGLSSEEKAQEIKNWIEWLEKWVAIMAKLFGEELEKQFKQG | -2.91 | -2.63
14 | Index 38 (designed binder) GEKLKKLAEELEKKFRKLFFILKDELDRAYLIALKTQVQRQELARDTKLWIAVALMIIGDLFNAEIQGKELRDKLIKKNQVEEQKAKEFWKKWEEVKQRAEELIKKGGEMVERLADYG | -1.71 | -1.46
15 | Index 39 (designed binder) GKKYLKAARLALYLLWEAYLRGYLNLLLDELEAEFFDPHDERKIRYTINWIADALMLIGDLFNARLKMEKALWELKKEGKLREEDYEKMERLFRKWMELAFKWLEHFREMAEKAKKKG | -2.08 | -2.01
16 | Index 54 (designed binder) GDKHEEAKEEAEKKFEKLRIEARLKAEWLKKAGKYGLQLQELWAKLSDYWIAFALEIIGDLFNFLEEHKEKIEKDLKKGEALDDRADDILKDLEKKAKEVSKHAMKLGREAQQFIELG | -3.22 | -2.24
17 | Index 66 (designed binder) GRSKDDATKEAWERLERLLKEFKEKAEKLRDKAQAHYVYKQFALKVTILWIAWALKLIGDAFNFIEEAEKKMRENRERNLISEDDAREEKRKLEEFARRASKKANKIGDDLDRQLELG | -2.03 | -2.49
18 | Index 68 (designed binder) GVSIEWAFDFLENKAEEDAREARRLAQKLAEEFFKHSAREEDRAKLTKKWIAVALMIIGDIFNVEQFTKQQGEEFVKRGLRSEDDFKEYLRKMEEKKEEAERIAKRAKDDMLKARDLG | -2.57 | -3.63
19 | Index 53 (designed binder) GHVAEEEIRRFLRKAEKVLQEARRKMEKRRREAEEHDTTTWLLARGTIEWIADALMLIGDAFNFRREAYIRGELYKKFGLIREDDLKDRLKEADQRLDEFAKKMALFGLELHLRLREG | -0.29 | 0.4
20 | Index 46 (designed binder) GRDGERVVKWAKNQHENTVDEAKDKMDNQEDEMRKKNADDEKLRKETHKWIAFALEAIGDVFNDAMQAFELLERFKKFGQQEQKKLDEFKEKVERLAREASRKLTYLGKRFALDIESG | -3.41 | -3.6
21 | Index 55 (designed binder) GEEAEKLIKEAKDKFEDLREKAEELLYKMWLIRYLSSKDTKRGEIYTKKWIAIMLMMIGDAFNMALRARLYLEERRKRGEKHEEEAEEKERRARWEQEDAYKKAKKGAKRARLYDKLG | -2.69 | -3.29
22 | Index 48 (designed binder) GEKGKEKAQKFRDIIKDILEEAIRLAKDLAEDAKKFDLKLEKLLEATLKWIAAALMAIGDLFNFKDLAEKEVRERHDRGEISSDRRDKYEKEAREGADEAAKELSKLAKIAEKKILEG | -2.8 | -2.33
23 | Index 40 (designed binder) GNEAEQRREEFKEIMEKKKDEAEKKSEKIKRLALAFDLSDDDKTKATDEWIAISLEIIGDAFNFGEGLKDEAKRRKKRGLKRDEEVDKFEKIAEQAIEELRKLAEEADERGAKHLRDG | -3.7 | -4.69
24 | Index 64 (designed binder) GLSGDDAEDFARQEIEKRAREAEEKARKLIWLASKYDAKREEALKFHLRWIAFALMMIGDAFNAEEIAREMLEIARELGLTREEEAKEKLEKIRKKETEASKKMAERGRRLDNQANNG | -3.51 | -1.68
25 | Index 59 (designed binder) GITLEKLWKEAKEKIRKREDEALLKAEWFKKKANNVLDLNDMKAKMTAKWIALALMAIGDIFNYLLETEIKARLLVRLGLFRQEEAEKKKEEAKEEAIKSSRNIAKRGEEAAKQMEQG | -2.86 | -2.36
26 | Index 49 (designed binder) GWSKDWVLEWLREKLEEIDREALWKFILIWIEKMLGVDDDEQRRKDAAKWIAGSLEAIGDIFNAMMWAKRLLEWLEKANLVRREELEKAKQKAEELAKKAALRAAIYSKIAEEWLWKG | -2.7 | -1.22
27 | Index 65 (designed binder) GNDLKDIARQIEEQAKKALDDMAKLIRELAEKAEKFYPSKDDIRRLTHYWIAAALMAIGDAFNRLQEARRRAEWLRKWGLRREEEAEKAKKEAEERHERAKELAHKMGDEMEEKLKRG | -3.2 | -2.31
28 | Index 61 (designed binder) GEHLDELLLKLLWLAIQFAERAKLTIELWKLWGKITQSYNEWAEKAARDWIAAALMIIGDMFNHKQKAEEEAKKFAKKGLKRKEELEELLKKLEEFIKRAKKLIKETAQKHEEASKMG | -2.79 | -3.54
29 | Index 56 (designed binder) GESAEKWRERLREKAGYWAEYAFWLADEAEKRAKIYSASSERRAEWTMRWIAIALAAIGDVFNEGQKADEKFDELKKQNKRSDDDLDDYKDKFKEEVEKALRKLLKAGDKIADLAEQG | -3.49 | -3.81
